# Measurements: patent publication US20250026849A1 (ARCELLX, published 2025)
# T1: CD123 (Homo sapiens (Human), UniProt P26951 19-305, limits assumed)
# T1 construct: The CD123 construct used in the ELISA is not described; also called CD123-Signal
# T1 sequence: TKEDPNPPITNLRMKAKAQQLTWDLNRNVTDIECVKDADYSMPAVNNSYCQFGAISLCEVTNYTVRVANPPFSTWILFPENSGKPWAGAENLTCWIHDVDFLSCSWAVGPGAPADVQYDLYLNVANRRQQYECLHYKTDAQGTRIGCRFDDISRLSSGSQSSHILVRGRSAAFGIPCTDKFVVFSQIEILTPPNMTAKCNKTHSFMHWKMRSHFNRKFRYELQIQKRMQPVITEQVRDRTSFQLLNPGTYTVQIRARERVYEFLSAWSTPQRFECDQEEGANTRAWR
# Target: T1, CD123
# Experiment: ELISA
# Design: unit not given here
row,ELISA_avg,Binder
1,5.1,D domain of SEQ ID NO: 512 (designed binder) MGSWWEFKEDLAEIKWFLEALGGSEAELAWFEHDIAKFEFELQYYKGKGNPEVEALRKEAAAIRDELQAYRHN
2,3.5,D domain of SEQ ID NO: 514 (designed binder) MGSWNEFKDDLAMIKMTLEALGGSEAELAWFEHDIAEFEDDLQWYKGKGNPEVEALRKEAAAIRDELQAYRHN
3,8.2,D domain of SEQ ID NO: 500 (designed binder) MGSWEFFKEVLAEIKYDLEALGGSEAELAWFETDIAGFEIDLQVYKGKGNPEVEALRKEAAAIRDELQAYRHN
4,3.1,D domain of SEQ ID NO: 501 (designed binder) MGSWVFFKEDLATIKNDLEALGGSEAELAWFEMMIADFEADLQYYKGKGNPEVEALRKEAAAIRDELQAYRHN
5,3.2,D domain of SEQ ID NO: 478 (designed binder) MGSWMFFKEDLADIKWALEALGGSEAELAFFEEEIALFEQHLQQYKGKGNPEVEALRKEAAAIRDELQAYRHN
6,6.8,D domain of SEQ ID NO: 510 (designed binder) MGSWSWFKEDLADIKFELEALGGSEAELAWFELDIADFEQALQQYKGKGNPEVEALRKEAAAIRDELQAYRHN
7,3.8,D domain of SEQ ID NO: 471 (designed binder) MGSWYEFKDDLAEIKEWLEALGGSEAELAFFELDIADFEWLLQLYKGKGNPEVEALRKEAAAIRDELQAYRHN
8,3.9,D domain of SEQ ID NO: 474 (designed binder) MGSWIVFKDDLADIKRWLEALGGSEAELAMFEDEIADFEWQLQDYKGKGNPEVEALRKEAAAIRDELQAYRHN
9,4.3,D domain of SEQ ID NO: 502 (designed binder) MGSWEEFKEDLAEIKVWLEALGGSEAELAWFEMGIADFEDGLQFYKGKGNPEVEALRKEAAAIRDELQAYRHN
10,6,D domain of SEQ ID NO: 473 (designed binder) MGSWILFKDDLAWIKETLEALGGSEAELAFFEDNIADFEEQLQGYKGKGNPEVEALRKEAAAIRDELQAYRHN
11,3.3,D domain of SEQ ID NO: 503 (designed binder) MGSWHWFKEDLANIKDWLEALGGSEAELAWFEDNIADFEGDLQVYKGKGNPEVEALRKEAAAIRDELQAYRHN
12,3.1,D domain of SEQ ID NO: 507 (designed binder) MGSWNWFKEDLAIIKMDLEALGGSEAELAWFEHNIAGFEFELQGYKGKGNPEVEALRKEAAAIRDELQAYRHN
13,5.5,D domain of SEQ ID NO: 506 (designed binder) MGSWHWFKEDLAIIKQDLEALGGSEAELATFEQWIAEFEWDLQEYKGKGNPEVEALRKEAAAIRDELQAYRHN
14,13.7,D domain of SEQ ID NO: 504 (designed binder) MGSWFWFKEDLAFIKEDLEALGGSEAELAWFEDGIAFFEWDLQDYKGKGNPEVEALRKEAAAIRDELQAYRHN
15,3.8,D domain of SEQ ID NO: 505 (designed binder) MGSWQWFKEDLAEIKHDLEALGGSEAELAWFEDFIAQFEFDLQWYKGKGNPEVEALRKEAAAIRDELQAYRHN
16,3.3,D domain of SEQ ID NO: 490 (designed binder) MGSWNSFKDELAEIKAELEALGGSEAELAFFEEDIAWFEEHLQQYKGKGNPEVEALRKEAAAIRDELQAYRHN
17,3.4,D domain of SEQ ID NO: 491 (designed binder) MGSWDLFKWELAEIKLGLEALGGSEAELAEFEYDIAWFEEDLQDYKGKGNPEVEALRKEAAAIRDELQAYRHN
18,3.3,D domain of SEQ ID NO: 484 (designed binder) MGSWYWFKQDLAHIKSMLEALGGSEAELAWFEEDIADFESELQEYKGKGNPEVEALRKEAAAIRDELQAYRHN
19,4.8,D domain of SEQ ID NO: 485 (designed binder) MGSWTFFKWDLADIKANLEALGGSEAELAWFEEDLAGFEAELQEYKGKGNPEVEALRKEAAAIRDELQAYRHN
20,5.5,D domain of SEQ ID NO: 488 (designed binder) MGSWQTFKDELAHIKWELEALGGSEAELAWFEWDIANFEEELQEYKGKGNPEVEALRKEAAAIRDELQAYRHN
21,9.4,D domain of SEQ ID NO: 489 (designed binder) MGSWYWFKEELAFIKWELEALGGSEAELALFEEDIAYFEEMLQEYKGKGNPEVEALRKEAAAIRDELQAYRHN
22,9.9,D domain of SEQ ID NO: 498 (designed binder) MGSWYVFKDELAEIKQFLEALGGSEAELAWFEDDIAEFETQLQHYKGKGNPEVEALRKEAAAIRDELQAYRHN

row,ELISA_avg,Binder
1,4,D domain of SEQ ID NO: 493 (designed binder) MGSWHLFKWTLAEIKYELEALGGSEAELAWFEDDIATFEEELQWYKGKGNPEVEALRKEAAAIRDELQAYRHN
2,4.4,D domain of SEQ ID NO: 496 (designed binder) MGSWETFKYELAEIKDYLEALGGSEAELAWFEDDIAEFEFELQYYKGKGNPEVEALRKEAAAIRDELQAYRHN
3,5,D domain of SEQ ID NO: 497 (designed binder) MGSWNTFKYELAEIKHFLEALGGSEAELAMFEDDIAMFEWELQEYKGKGNPEVEALRKEAAAIRDELQAYRHN
4,3.8,D domain of SEQ ID NO: 486 (designed binder) MGSWSFFKEELANIQVYLEALGGSEAELAWFEEDIADFEEDLQHYKGKGNPEVEALRKEAAAIRDELQAYRHN
5,3.4,D domain of SEQ ID NO: 487 (designed binder) MGSWEFFKYELADIKDELEALGGSEAELAWFEEDIATFEEWLQGYKGKGNPEVEALRKEAAAIRDELQAYRHN
6,4.6,D domain of SEQ ID NO: 482 (designed binder) MGSWTYFKDDLADIKQWLEALGGSEAELAFFEIEIAEFEEELQEYKGKGNPEVEALRKEAAAIRDELQAYRHN
7,3.9,D domain of SEQ ID NO: 481 (designed binder) MGSWTFFKNDLAEIKDWLEALGGSEAELADFEWDIAEFEYSLQEYKGKGNPEVEALRKEAAAIRDELQAYRHN
8,7.6,D domain of SEQ ID NO: 494 (designed binder) MGSWVTFKDELADIKDFLEALGGSEAELAFFEVDIAEFEAELQFYKGKGNPEVEALRKEAAAIRDELQAYRHN
9,3.9,D domain of SEQ ID NO: 483 (designed binder) MGSWTVFKYDLADIKWWLEALGGSEAELADFEEEIAEFEEELQEYKGKGNPEVEALRKEAAAIRDELQAYRHN
10,7,D domain of SEQ ID NO: 479 (designed binder) MGSWTFFKEDLAGIKWELEALGGSEAELAWFEDEIALFEEELQEYKGKGNPEVEALRKEAAAIRDELQAYRHN
11,4.6,D domain of SEQ ID NO: 495 (designed binder) MGSWVYFKDELADIKDFLEALGGSEAELAEFEEDIATFEYDLQWYKGKGNPEVEALRKEAAAIRDELQAYRHN
12,8.8,D domain of SEQ ID NO: 480 (designed binder) MGSWVFFKDDLADIKDELEALGGSEAELAFFEIAIALFEWELQEYKGKGNPEVEALRKEAAAIRDELQAYRHN
13,15,D domain of SEQ ID NO: 499 (designed binder) MGSWIFFKEQLAIIKWELEALGGSEAELAWFEDDIAAFEDDLQFYKGQGNPEVEALRKEAAAIRDELQAYRHN
14,4.8,D domain of SEQ ID NO: 508 (designed binder) MGSWSWFKEDLAEIKMELEALGGSEAELAYFEWYIAEFEFQLQHYKGKGNPEVEALRKEAAAIRDELQAYRHN
15,6.9,D domain of SEQ ID NO: 511 (designed binder) MGSWSWFKEDLASIKAVLEALGGSEAELAFFESDIAEFEQELQYYKGKGNPEVEALRKEAAAIRDELQAYRHN
16,4.9,D domain of SEQ ID NO: 475 (designed binder) MGSWGHFKQDLAWIKDTLEALGGSEAELAFFEDDIAMFEMELQDYKGKGNPEVEALRKEAAAIRDELQAYRHN
17,3.8,D domain of SEQ ID NO: 492 (designed binder) MGSWIFFKQDLAEIKLNLEALGGSEAELAWFEDDIAWFESHLQDYKGKGNPEVEALRKEAAAIRDELQAYRHN
18,4,D domain of SEQ ID NO: 509 (designed binder) MGSWSWFKQDLADIKIQLEALGGSEAELAWFEWDIAEFEFELQDYKGKGNPEVEALRKEAAAIRDELQAYRHN
19,6.3,D domain of SEQ ID NO: 472 (designed binder) MGSWQWFKDDLAYIKETLEALGGSEAELALFEDMIADFEFELQWYKGKGNPEVEALRKEAAAIRDELQAYRHN
20,10.4,D domain of SEQ ID NO: 477 (designed binder) MGSWYWFKDDLAEIKGLLEALGGSEAELAEFEDEIAVFEQELQEYKGKGNPEVEALRKEAAAIRDELQAYRHN
21,4.5,D domain of SEQ ID NO: 476 (designed binder) MGSWGYFKDDLAWIKGELEALGGSEAELAEFEWFIAVFEEDLQVYKGKGNPEVEALRKEAAAIRDELQAYRHN
